Results published in the supplement of paper PMC12764529.

Test: folding stability dG unfold (combined trypsin and chymotrypsin); higher = more stable
Protocol: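 Folding stability of de novo designed mini-proteins (<80 aa, no Cys; designed by TrROS, TrMRF, ProteinMPNN and the joint model) was measured by cDNA display proteolysis with trypsin and chymotrypsin. Each protease was used at 11 concentrations in a threefold dilution series plus a no-protease condition. K50 was inferred by Bayesian fitting of sequencing counts, and dG unfold was derived against a sequence-predicted unfolded-state K50 (Tsuboyama et al. method). Sequences shown include variable-length N-terminal GS-type padding (SAGGSAGG...) inside a display construct carrying a PA tag. Rows were kept only if the AF2 dimer inter-PAE was >15, to exclude likely homo-oligomers.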

Folding stability dG unfold, < -1 kcal/mol:
SAGGSAGGSAKIIVWGRTPEGAKEKAKEFADNIQKEMQENGMPPKNIKIPIEIFDPEAMPDSAGGSAGGSAG [r3_249_TrROS]
SAGGSAGGSAKTYIIPIKDLGPDENGKYHIDIAVEKVKKLFPDENITSVDIDGFEKIGELAESAGGSAGGSA [r18_72_TrMRF]
SAGGSAGGSAMDPDDQLPTIEEIAKKFGMDATIEPRRNPNGMPYRTATVQNNGGPVGEISIPSAGGSAGGSA [r18_369_TrROS]
SAGGSAGGSAMSPSLPGKYEVLLTDPRPGVGPPVTRRVTLTPEEIEATIPPGAGREVVELPSAGGSAGGSAG [r3_223_JUSTAS]
SAGGSAGGSAMTLLSEKEVPGTDLTIKYVEEKLPGERVIRTLTIKKNSVVEEKEFPVGELPSAGGSAGGSAG [r3_48_JUSTAS]
SAGGSAGGSANFDINIEPHPDKDYLVITVTIPPGMPPGQKVRTWVIDPPDGKILEPEPIKIPDSAGGSAGGS [r12_564_TrROS]
SAGGSAGGSAPFTAKEAADYAAWKIQKRLKKEGNPDKEITIKAPIEWDPEDGIFRAKIQIEYSAGGSAGGSA [r18_517_TrROS]
SAGGSAGGSAPKPIERVEVGSFTLPPGRRVFPVRARIRGTGEVVVVATDGAPVEEVLKAVEASAGGSAGGSA [r18_345_TrMRF]
SAGGSAGGSAREITIMVPPDDPNLTIEEAKDLLQPWGIKKVEIEPHPDGYYIVEIRVPPGLSAGGSAGGSAG [r3_335_TrROS]
SAGGSAGGSASPKQVPITIEIQTPNKPRKITFPIPEGQEGGPEEIMDRLADDGNYKIDRITSAGGSAGGSAG [r3_31_TrROS]
SAGGSAGGSASSTTVPLEIPAPEGAVVELTFPDGTTVKATVTPRPDGSYTLKVGNGEIVAPRSAGGSAGGSA [r18_372_JUSTAS]
SAGGSAGGSASSTVLETEEEPVGKVTTEKVLVPRPDGTPVLRTKLVYRPKDGSLTSETTSLSAGGSAGGSAG [r3_94_JUSTAS]
SAGGSAGGSATIRPGEPIRIKIKYPNPDGKPQERTYNGNVPPGSTLEELADNFPGYKVEIEKSAGGSAGGSA [r18_279_TrROS]
SAGGSAGGSDKEREVPIEVRYPNQPLKIPVEFKDEEDAPHKARSAIKPLMKKLPMVKIPKPDDSAGGSAGGS [r12_230_TrROS]
SAGGSAGGSDPNIKVEIWHPNNGQPRTFPAGDSIDELAENMPGPVQIKIEYPGKEKTLMIPFKSAGGSAGGS [r12_1056_TrROS]
SAGGSAGGSEIEIMAPFKSPEDARDQIREFAREKGLEIKPKKIEVHRNPNGWQWVTFKIEIKDSAGGSAGGS [r12_924_TrROS]
SAGGSAGGSEKYRVRFPDGQPLPFPNGKSHPMKPGEEMEIESPEDKDRLKDHFPGFPVEVEPLSAGGSAGGS [r12_987_TrROS]
SAGGSAGGSFEVHYDPEPNNLTIRMEFPGGRRTYRIPSADDVKDWFEDMGMPFKPMEITKIEPSAGGSAGGS [r12_834_TrROS]
SAGGSAGGSGEFLSDLPPDWEVSTEPLPSDTVRYTVTAPTGPVSAVSLPVGDREVRTSATPPVSAGGSAGGS [r20_50_JUSTAS]
SAGGSAGGSGGLGGEPISVRTELVTVPVELEEEVLLPGGVPLPRRRTVERVVAVTTRVPPGAALSAGGSAGG [r6_526_JUSTAS]
SAGGSAGGSGKKYILRFKNPEKARSFAKPLGLKVKPGDDLPVDDPEKFLKSLPLLKDIVVEDKSAGGSAGGS [r12_571_TrMRF]
SAGGSAGGSGMAVVEVDITGPTSTSEEEAQARAEALAAEIAAASDSADVRATVRFSRVPPELPSAGGSAGGS [r12_522_JUSTAS]
SAGGSAGGSGSGSVTVPVTSTDPVTGKPSVSTVTVSLDVVPPPPVPATVFFDPVRGRRSTDLGGSAGGSAGG [r6_926_JUSTAS]
SAGGSAGGSHWAEELAKEAGLKVKIDDMMKNPDGYPYVIVKIKPPDGGKRTVMFDGNQPRIYPSAGGSAGGS [r12_279_TrROS]
SAGGSAGGSKIKIEDIHPNPNGMFMFRIRPPDNGKPREVPFDSPEDAERFADELEEDGYKIEISAGGSAGGS [r20_177_TrROS]
SAGGSAGGSLKPGAPVMYRIRNPENGRKFPFQIKIKEDGGIDIEYPSNGKTMTIPPDNIEPVPSAGGSAGGS [r12_726_TrROS]
SAGGSAGGSLRPGEPFKIYSPNGEKFPFKIESVEVDPDGEIPLTITNPNGKPIGPFPYRIKPLSAGGSAGGS [r12_735_TrROS]
SAGGSAGGSMDLEDMKIKSIYIPDNPIMITFKNKGKHRTRTIPEDNWQILKDLLGDGDITIHPSAGGSAGGS [r12_604_TrROS]
SAGGSAGGSMEMETYPLNGFTVMVMRNPNDGRETVQIFMPDNGKPIQMPPEDLQQDPDLIDALSAGGSAGGS [r12_817_TrROS]
SAGGSAGGSMKKLLVERKPDGTVTVVDVLPADRSAEELPPEELTSFTLLPFESLEEALKKAAASAGGSAGGS [r12_452_JUSTAS]
SAGGSAGGSMKYLVRFPEGGSLPFPDGSSVPMKPGEVLEVESPADVEALKKLAPGRDIEVEPVSAGGSAGGS [r12_987_TrMRF]
SAGGSAGGSMNEVSEEEAIAEAVAKHAPDEPVTYELKDNKKIVVNVNGADPANVSIEVIPIKNSAGGSAGGS [r12_648_JUSTAS]
SAGGSAGGSNIKDALDNFPPGYQTDVDPNSGTISVRFPDEGWEHQIEIPAEEGKVEINEWKPYSAGGSAGGS [r12_82_TrROS]
SAGGSAGGSNVEIDTTRTPDRYTVKIRFPDNGKKVEIPFDPGQPPNQAKDRAKELAKKNGIKISAGGSAGGS [r12_764_TrROS]
SAGGSAGGSPIPVPLVIFFPDSETTEIVPATPELFEALAAELAALGPVVRRGPERTMTITVPRSAGGSAGGS [r12_292_JUSTAS]
SAGGSAGGSPIRRALRYVREQFPPGQPYRVRARNPGNGKEREIEVPWNDPEELDNTKDIEVEPYSAGGSAGG [r6_402_TrROS]
SAGGSAGGSPKPMKLRFRNPDNGMPFEVNVDKIDPDGQLRVEIEQPNGKTRKIDNIDNVEIEKSAGGSAGGS [r12_118_TrROS]
SAGGSAGGSPKWKVEPIGNRIRIMIPDGPYYTARLPDDVKLDLDEGKFKFPPGLEVEPVPLKESAGGSAGGS [r20_158_TrROS]
SAGGSAGGSPPPKVKVKKFHRDPPNGYVRANIEFPDKRDIEIQMENMPPDQAEEKAKNLAKKLSAGGSAGGS [r20_181_TrROS]
SAGGSAGGSRYFIRIELRHPDDGQEYEPTIPINPGQTEEQVKQEIREHHPGADIKDIEIYPMDSAGGSAGGS [r12_738_TrROS]
SAGGSAGGSSAITHPDSDAGVAPVATTRSPNATPETVLRDDSPDPRRWILTASGERRVEPLLESAGGSAGGS [r12_205_JUSTAS]
SAGGSAGGSSDIKIYEIPEKGEIVVERPPSEKVTIDINNHPLEGSLTPLPGNKYLWKVKIKSPSAGGSAGGS [r12_970_JUSTAS]
SAGGSAGGSSHMEVEKAAKELSSEVGFEKSSNGPDSVSFTFDPAKPELVRALAEKFGIDLKVESAGGSAGGS [r12_74_JUSTAS]
SAGGSAGGSSLAEEIARLLGLESETLSESVSPTPRSLTLTRFKPPEDGELIVFYDGEVPTILPSAGGSAGGS [r12_279_JUSTAS]
SAGGSAGGSSMPSDVPVDIPVKVTRTVPNGPTSEEELVLSTTRPDASIEEVLEELKKKGWTIESAGGSAGGS [r20_27_JUSTAS]
SAGGSAGGSSPKRTIEITLPKDASEEELQATANAIAKELGAPNVQVEVSPVPEDYRLVKVIVESAGGSAGGS [r20_208_JUSTAS]
SAGGSAGGSSPPDATIPREEAEKYVKEKVREENLKAGKPLKKVKKLIVKEDPNSDNVKVTVIESAGGSAGGS [r12_583_JUSTAS]
SAGGSAGGSSWDEVREIAREARKEGFPMVSIRYDDKNTHQINFEDGPIEPLPNPDNVKIEIMRSAGGSAGGS [r20_44_TrROS]
SAGGSAGGSSYTLVRVVEHPDSVVEYYKAPDGTVIVKRNDEEIEIPPSVPASSLPEDADVVLESAGGSAGGS [r12_594_JUSTAS]
SAGGSAGGSTAEEVAEALGFEEAEVTPTGLVEVRKLPNGGYARAYRYTLKLRSPDGTERTFPISAGGSAGGS [r12_221_TrMRF]
SAGGSAGGSTAGEAESEEISVEPLPDGPYLVTRSVVRTLPDGSSEVTETVPSIATDPAEIAEASAGGSAGGS [r12_386_JUSTAS]
SAGGSAGGSVIRIPPDDLRANLKPGMMVMIKDPGKPRMFPWDDLDKLPPNDPVEIEIIPMEPGSAGGSAGGS [r12_501_TrROS]
SAGGSAGGSVVIPMEDLSNMPWERIRDQIKKSPDPVTITMPNPEGMKRAQDLFKEEGVPITVVSAGGSAGGS [r12_97_TrROS]
